For test [1], the target named is T1, Notch1-Gal4 chimeric receptor (hN1 ECD-Gal4 ICD) on CHO-K1 cells (human, UniProt P46531 19-1735).
T1 construct: extracellular domain; H2B-mTurq2 marker; also called Notch1-Ga4; NOTCH1 ECD-GAL4 ICD; not shown: transmembrane segment and Gal4 intracellular domain
The test can be described thus: fluorescence microscopy of JFX650-labelled probody on CHO-K1 cells expressing Notch1-Gal4. From the text: FIGS. 30A and 30B present data showing anti-NRR1-based probodies can bind Notch1 receptors following deletion of the S1 loop (ΔS1) containing the NRR's furin cleavage site. The probodies used represent the anti-NRR1 scFv fused to with a soluble mutant NRR (V1667D) from Notch1, linked together via a TEV protease substrate sequence. The probodies were also fused with a HaloTag domain, which remains attached to the anti-NRR scFv following TEV cleavage. CHO-K1 cells expressing a Notch1-Gal4 chimeric receptor were treated with intact (uncleaved) and TEV protease-cleaved versions of the indicated probodies. The HaloTag domains were conjugated with a JFX650 dye to permit visualization of their binding to cell surface Notch1-Ga4 receptors. (FIG. 30A) Fluorescently labeled probody containing the S1 cleavage loop (Probody^V1667D-JF650) binds Notch1-Gal4 only in its TEV protease-cleaved state. (FIG. 30B) Fluorescently labeled probody containing the S1 cleavage loop deletion (Probody^V1667D(ΔS1)-JF650) similarly binds Notch1-Gal4 in a manner that is dependent on TEV protease cleavage. Insets represent emissions from a constitutively expressed H2B-mTurq2 expressed by the analyzed cells.

Test [2] deals with T2, hNotch1 receptor, stably integrated, on clonal CHO-K1 cells (human, UniProt P46531 19-2555).
T2 construct: whole, on cells; also called human Notch1
The test can be described thus: fluorescence microscopy of cell-surface bound probody on clonal CHO-K1 cells expressing hNotch1, 40-minute incubation, wash, fixation. From the text: FIGS. 33A-33C present schematics and data showing activation of a probody/masked antibody with specificity against human Notch1 (hNotch) NRR. (FIG. 33A) Schematic depicting the TEV protease (TEVp)-mediated activation and binding of the anti-hNotch1 probody. The probody sequence used contains the V1677D mutant NRR as a “mask” and is linked to an anti-hNotch1 scFv via a linker containing a TEVp substrate sequence. Upon cleavage by TEVp, the NRR mask dissociates from the scFv and is thus able to bind its corresponding antigen. A fluorophore is linked to the probody sequence to permit visualization. (FIGS. 33B and 33C) Tests of scFv binding to hNotch1. Clonal CHO-K1 cells expressing a stably integrated hNotch1 receptor were incubated with the body alone (FIG. 33B) or with the pro body treated with TEVp (FIG. 33C). Following a 40-minute incubation, probody-containing media was removed, and cells were washed with fresh media prior to fixation and DNA staining with Hoechst-JF526 (inset). Cells were imaged to detect cell-surface bound (activated) probody and Hoechst-JF526. Binding to hNotch1 was observed only with the TEVp-cleaved probody sequence. The antibody sequence used in the body can inhibit signaling by wild-type and various disease-associated hNotch1 mutations (Wu et al. Nature 464: 1052-1057 (2010)).

Test [3] deals with T3, human Notch1-derived receptor overexpressed on CHO-K1 cells (human, UniProt P46531 19-1762, limits assumed).
T3 construct: Cells also express H2B-mTurq; also called Notch1 receptors
The test is described as follows: fluorescence microscopy of JFX650-labelled probody on CHO-K1 cells overexpressing a human Notch1-derived receptor. Here is the method:
FIG. 37 present data showing Probody with a mask based on the wild-type Notch1-NRR binds Notch1 Receptors in a Cleavage-Dependent Manner. A probody containing the anti-NRR1 scFv was fused to a TEV protease cleavable linker and the wild-type Notch1 NRR. The probodies also contained a HaloTag for labeling with a JFX650 dye. Binding of the probody to Notch1 receptors was tested using uncleaved and TEV protease-cleaved probody. The evaluated cells were based on CHO-K1 celle overexpressing a human Notch1-derived receptor; cells also expressed H2B-mTurq as a fluorescent marker (inset).

In test [4] the target is T4, mouse Notch1 NRR with V1677D, in the ProNotch receptor (mouse, UniProt Q01705 1427-1752).
T4 construct: Domain of a synthetic receptor on cells; also called NRR(V1677D); Mouse NRR1-V1677D
The test can be described thus: anti-HA immunoblot (aHA-HRP) of cell lysate and conditioned media of HEK293-FT cells expressing the receptor, after TEVp cleavage of the scFv-NRR linker. How it is done:
(§1) HEK293-FT cells were transfected with pcDNA3-based plasmids encoding the indicated receptor with TEVs substrate linker and N-terminal HA tag. (FIG. 11A) cell lysates and conditioned anti-HA immunoblots after 3 hours of TEVp incubation, overwise indicated. FL; full-length receptor, NTF; N-terminal fragment, Ab; ‘A-2’ variant of the anti-NRR1 scFv. (FIG. 11B) Inventors further evaluated the efficiency of TEVs cleavage by comparing an anti-HA blot (which stains all copies of the receptor, including those in the secretory pathway) to a streptavidin blot probing for surface-bound receptor copies by labelling receptors with a cell-impermeant halo-ligand-biotin conjugate. […] Immunoblot of cell lysates and conditioned media of HEK293-FT expressing the ‘V1677D’ design by transient transfection. Cells were stained with cell-impermeant halo-biotin prior to TEVp addition. Cell lysates and conditioned media were collected for immunoblot analysis after 3 hours. Colored triangle markers denote FL (top arrow of top blot), NTF (middle arrow of top blot; top arrow of bottom blot) and cleaved NTF (bottom arrows of both blots) species.
(§2) Inventors then evaluated whether these receptors have different TEVs cleavage efficiencies and anti-NRR1 scFv dissociation kinetics. They immunoblotted for the anti-NRR1 scFv mask in cell lysates and conditioned media in cells expressing the non-mutated WT, V1677D, and A1702P NRR receptors in the absence or addition of exogenous TEVp. Inventors than chose to analyze the V1677D and A1702P mutations since they were the designs with the highest and lowest protease-induced reporter activation, respectively.

Test [5] deals with T5, mouse Notch1 NRR with the T-ALL mutation A1702P, in the receptor design (mouse, UniProt Q01705 1427-1752).
T5 construct: also called A1691P in mouse Notch1
Described as above. Here is the method:
as §1, §2

For test [6], the target named is T6, mouse Notch1 NRR, non-mutated (WT), in the control receptor HA-Halo-antiNRR-TEVs-NRR-GAL4VP64 (mouse, UniProt Q01705 1427-1752).
T6 construct: Domain of a synthetic receptor on cells; also called non-mutated NRR control; Mouse NRR1-WT
The test is described as above. How it is done: as §1, §2

Residue numbers refer to the chain shown, from its start. Numbers in names are those of the source.

T1 sequence (P46531 19-1735, stated change not applied): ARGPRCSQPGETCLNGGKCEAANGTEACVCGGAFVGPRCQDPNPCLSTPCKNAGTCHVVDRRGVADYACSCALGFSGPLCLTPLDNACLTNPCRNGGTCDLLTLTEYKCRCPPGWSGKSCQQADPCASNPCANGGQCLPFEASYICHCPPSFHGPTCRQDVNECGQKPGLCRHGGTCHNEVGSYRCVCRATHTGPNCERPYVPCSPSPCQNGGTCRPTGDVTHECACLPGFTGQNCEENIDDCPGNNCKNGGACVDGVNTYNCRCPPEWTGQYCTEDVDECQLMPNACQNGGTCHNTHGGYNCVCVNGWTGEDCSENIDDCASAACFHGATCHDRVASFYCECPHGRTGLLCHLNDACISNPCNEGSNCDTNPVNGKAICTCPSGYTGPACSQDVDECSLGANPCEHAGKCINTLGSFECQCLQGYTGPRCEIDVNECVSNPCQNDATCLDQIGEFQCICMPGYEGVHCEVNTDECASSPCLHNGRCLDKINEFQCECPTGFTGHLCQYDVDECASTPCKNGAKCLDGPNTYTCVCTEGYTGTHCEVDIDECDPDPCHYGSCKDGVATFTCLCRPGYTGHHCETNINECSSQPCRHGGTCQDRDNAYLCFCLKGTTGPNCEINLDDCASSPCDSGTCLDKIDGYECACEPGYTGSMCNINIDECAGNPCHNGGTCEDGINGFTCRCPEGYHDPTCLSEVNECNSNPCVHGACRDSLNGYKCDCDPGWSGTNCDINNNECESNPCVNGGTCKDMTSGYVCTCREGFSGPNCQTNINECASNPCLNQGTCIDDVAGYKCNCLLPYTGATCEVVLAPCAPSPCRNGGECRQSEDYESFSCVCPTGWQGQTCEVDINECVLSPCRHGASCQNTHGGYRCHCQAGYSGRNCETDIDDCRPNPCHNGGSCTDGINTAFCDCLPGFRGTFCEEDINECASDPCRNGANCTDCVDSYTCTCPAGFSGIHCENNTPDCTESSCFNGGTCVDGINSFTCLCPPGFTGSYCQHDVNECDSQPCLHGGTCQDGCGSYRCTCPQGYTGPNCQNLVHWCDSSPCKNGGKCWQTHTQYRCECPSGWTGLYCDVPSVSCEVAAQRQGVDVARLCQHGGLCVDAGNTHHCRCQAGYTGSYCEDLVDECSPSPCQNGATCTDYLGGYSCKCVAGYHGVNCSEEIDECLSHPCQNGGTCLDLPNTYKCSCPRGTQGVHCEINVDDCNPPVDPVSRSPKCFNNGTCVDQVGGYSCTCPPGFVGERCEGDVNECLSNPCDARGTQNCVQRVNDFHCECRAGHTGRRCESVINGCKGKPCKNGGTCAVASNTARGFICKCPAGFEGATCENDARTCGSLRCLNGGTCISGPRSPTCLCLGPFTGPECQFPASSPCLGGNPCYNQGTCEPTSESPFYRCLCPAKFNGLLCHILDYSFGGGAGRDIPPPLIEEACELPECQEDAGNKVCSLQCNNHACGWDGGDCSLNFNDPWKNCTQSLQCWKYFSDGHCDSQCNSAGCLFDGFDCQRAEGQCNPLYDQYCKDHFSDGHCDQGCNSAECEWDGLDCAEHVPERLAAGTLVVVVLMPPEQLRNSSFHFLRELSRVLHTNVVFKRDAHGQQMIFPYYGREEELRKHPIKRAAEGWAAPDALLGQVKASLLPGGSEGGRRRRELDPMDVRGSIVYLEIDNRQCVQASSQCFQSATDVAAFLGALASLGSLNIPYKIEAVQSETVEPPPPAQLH
T2 sequence (P46531 19-2555): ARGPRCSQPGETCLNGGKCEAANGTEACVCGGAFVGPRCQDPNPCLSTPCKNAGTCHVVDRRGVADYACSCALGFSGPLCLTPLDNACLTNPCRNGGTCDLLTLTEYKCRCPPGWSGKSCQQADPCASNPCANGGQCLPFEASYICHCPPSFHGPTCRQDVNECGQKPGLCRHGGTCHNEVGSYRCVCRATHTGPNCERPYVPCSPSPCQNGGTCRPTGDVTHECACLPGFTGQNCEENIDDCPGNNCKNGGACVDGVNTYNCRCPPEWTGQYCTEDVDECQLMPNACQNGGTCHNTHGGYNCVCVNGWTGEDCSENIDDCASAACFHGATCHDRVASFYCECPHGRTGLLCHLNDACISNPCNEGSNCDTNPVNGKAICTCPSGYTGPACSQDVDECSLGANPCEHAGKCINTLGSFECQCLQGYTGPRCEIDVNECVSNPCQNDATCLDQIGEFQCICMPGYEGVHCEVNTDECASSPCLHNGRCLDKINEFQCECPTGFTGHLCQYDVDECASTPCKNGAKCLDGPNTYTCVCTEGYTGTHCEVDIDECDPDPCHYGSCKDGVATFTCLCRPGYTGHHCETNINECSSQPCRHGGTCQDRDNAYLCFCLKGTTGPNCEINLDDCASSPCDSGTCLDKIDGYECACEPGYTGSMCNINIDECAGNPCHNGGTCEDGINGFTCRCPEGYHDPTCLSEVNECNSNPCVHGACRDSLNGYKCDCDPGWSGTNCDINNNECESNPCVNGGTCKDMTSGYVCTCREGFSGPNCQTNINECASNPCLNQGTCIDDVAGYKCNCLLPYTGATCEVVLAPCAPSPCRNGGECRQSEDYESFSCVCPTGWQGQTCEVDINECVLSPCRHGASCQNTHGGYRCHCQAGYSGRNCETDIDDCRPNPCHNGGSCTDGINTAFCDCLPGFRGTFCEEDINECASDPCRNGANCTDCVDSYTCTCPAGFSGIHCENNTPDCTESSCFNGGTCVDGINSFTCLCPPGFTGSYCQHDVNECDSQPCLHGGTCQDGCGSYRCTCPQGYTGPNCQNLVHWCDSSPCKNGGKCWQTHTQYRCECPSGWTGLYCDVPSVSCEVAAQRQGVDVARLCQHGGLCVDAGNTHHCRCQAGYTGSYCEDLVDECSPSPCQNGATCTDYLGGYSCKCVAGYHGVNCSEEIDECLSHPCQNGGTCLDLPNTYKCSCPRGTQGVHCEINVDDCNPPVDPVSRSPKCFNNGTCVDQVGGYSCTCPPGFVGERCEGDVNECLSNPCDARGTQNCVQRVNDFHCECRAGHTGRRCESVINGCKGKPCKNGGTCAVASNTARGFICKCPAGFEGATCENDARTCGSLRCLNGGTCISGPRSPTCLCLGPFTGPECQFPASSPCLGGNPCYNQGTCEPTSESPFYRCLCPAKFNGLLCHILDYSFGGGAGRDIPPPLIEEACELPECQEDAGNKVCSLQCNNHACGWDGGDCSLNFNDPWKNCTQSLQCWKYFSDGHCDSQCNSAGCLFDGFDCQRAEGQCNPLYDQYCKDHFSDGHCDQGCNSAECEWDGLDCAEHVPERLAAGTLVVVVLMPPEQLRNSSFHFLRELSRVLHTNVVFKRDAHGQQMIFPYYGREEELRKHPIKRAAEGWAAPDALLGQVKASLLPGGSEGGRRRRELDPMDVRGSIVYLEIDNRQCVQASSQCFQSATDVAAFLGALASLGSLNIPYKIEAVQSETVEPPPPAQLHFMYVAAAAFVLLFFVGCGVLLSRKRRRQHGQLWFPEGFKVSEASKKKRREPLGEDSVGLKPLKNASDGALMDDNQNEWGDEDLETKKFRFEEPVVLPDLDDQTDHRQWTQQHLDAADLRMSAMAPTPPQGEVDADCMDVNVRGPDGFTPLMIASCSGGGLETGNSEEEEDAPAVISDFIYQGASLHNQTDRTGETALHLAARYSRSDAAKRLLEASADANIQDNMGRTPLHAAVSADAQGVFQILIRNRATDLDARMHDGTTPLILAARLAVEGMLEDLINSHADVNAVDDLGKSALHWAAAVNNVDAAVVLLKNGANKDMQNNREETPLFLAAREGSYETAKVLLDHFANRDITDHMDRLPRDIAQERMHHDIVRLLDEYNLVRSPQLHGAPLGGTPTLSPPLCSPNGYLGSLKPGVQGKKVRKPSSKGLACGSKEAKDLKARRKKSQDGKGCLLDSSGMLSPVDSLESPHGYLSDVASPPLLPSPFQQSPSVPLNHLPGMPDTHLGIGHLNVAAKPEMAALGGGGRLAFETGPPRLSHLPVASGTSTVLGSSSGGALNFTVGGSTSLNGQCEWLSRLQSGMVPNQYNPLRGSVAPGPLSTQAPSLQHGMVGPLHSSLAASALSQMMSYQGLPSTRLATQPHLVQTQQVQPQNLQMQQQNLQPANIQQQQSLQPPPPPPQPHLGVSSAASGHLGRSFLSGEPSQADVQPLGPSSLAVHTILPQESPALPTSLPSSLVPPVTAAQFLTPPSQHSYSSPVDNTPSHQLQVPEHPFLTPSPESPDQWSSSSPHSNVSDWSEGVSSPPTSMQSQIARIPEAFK
T4 sequence (Q01705 1427-1752 V1666D limits assumed): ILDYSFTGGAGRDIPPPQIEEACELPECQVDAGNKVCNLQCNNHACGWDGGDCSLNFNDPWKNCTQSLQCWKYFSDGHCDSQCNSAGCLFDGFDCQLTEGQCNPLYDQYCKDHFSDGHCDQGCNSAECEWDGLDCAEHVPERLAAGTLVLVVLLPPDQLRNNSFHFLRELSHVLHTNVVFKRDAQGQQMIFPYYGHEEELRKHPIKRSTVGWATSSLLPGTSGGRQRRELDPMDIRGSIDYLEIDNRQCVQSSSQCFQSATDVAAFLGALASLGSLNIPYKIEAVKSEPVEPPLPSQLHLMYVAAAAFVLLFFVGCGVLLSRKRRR
T5 sequence (Q01705 1427-1752 A1691P limits assumed): as the sequence (Q01705 1427-1752 V1666D limits assumed) above, with D240V, A265P counted along it
T6 sequence (Q01705 1427-1752 limits assumed, change not shown): as the sequence (Q01705 1427-1752 V1666D limits assumed) above, with D240V counted along it

B1: TEV-cleavable Anti-Notch1 probody, Genentech scFv, S1 loop deletion (HaloTag-anti-NRR1-scFv-TEVcs-msNRR1^V1677D-deltaS1), intact (uncleaved) (other)
chain: YPYDVPDYATGMAEIGTGFPFDPHYVEVLGERMHYVDVGPRDGTPVLFLHGNPTSSYVWRNIIPHVAPTHRCIAPDLIGMGKSDKPDLGYFFDDHVRFMDAFIEALGLEEVVLVIHDWGSALGFHWAKRNPERVKGIAFMEFIRPIPTWDEWPEFARETFQAFRTTDVGRKLIIDQNVFIEGTLPMGVVRPLTEVEMDHYREPFLNPVDREPLWRFPNELPIAGEPANIVALVEEYMDWLHQSPVPKLLFWGTPGVLIPPAEAARLAKSLPNCKAVDIGPGLNLLQEDNPDLIGSEIARWLSTLEISGGGGGSTGDGGGGEVQLVESGGGLVQPGGSLRLSCAASGFTFSSYWIHWVRQAPGKGLEWVARINPPNRSNQYADSVKGRFTISADTSKNTAYLQMNSLRAEDTAVYYCARGSGFRWVMDYWGQGTLVTVSSGGSSRSSSSGGGGSGGGGDIQMTQSPSSLSASVGDRVTITCRASQDVSTAVAWYQQKPGKAPKLLIYSASFLYSGVPSRFSGSGSGTDFTLTISSLQPEDFATYYCQQFYTTPSTFGQGTKVEIKGSNSGGTLEGGGSGENLYFQGGGGGRTGGGSEQKLISEEDLGGGSILDYSFTGGAGRDIPPPQIEEACELPECQVDAGNKVCNLQCNNHACGWDGGDCSLNFNDPWKNCTQSLQCWKYFSDGHCDSQCNSAGCLFDGFDCQLTEGQCNPLYDQYCKDHFSDGHCDQGCNSAECEWDGLDCAEHVPERLAAGTLVLVVLLPPDQLRNNSFHFLRELSHVLHTNVVFKRDAQGQQMIFPYYGMDIRGSIDYLEIDNRQCVQSSSQCFQSATDVAAFLGALASLGSLNIPYKIEAVKSEPVEGPV
modifications: HaloTag domain conjugated with JFX650 dye
notes: also called Probody^V1667D(ΔS1); Probody^V1667D(ΔS1)-JF650
On to B1, for which the binding result in test [1] is “no binding”.

B2: TEV-cleavable Anti-Notch1 probody, Genentech scFv (HaloTag-anti-NRR1-scFv-TEVcs-msNRR1^V1677D), intact (uncleaved) (other)
chain: YPYDVPDYATGMAEIGTGFPFDPHYVEVLGERMHYVDVGPRDGTPVLFLHGNPTSSYVWRNIIPHVAPTHRCIAPDLIGMGKSDKPDLGYFFDDHVRFMDAFIEALGLEEVVLVIHDWGSALGFHWAKRNPERVKGIAFMEFIRPIPTWDEWPEFARETFQAFRTTDVGRKLIIDQNVFIEGTLPMGVVRPLTEVEMDHYREPFLNPVDREPLWRFPNELPIAGEPANIVALVEEYMDWLHQSPVPKLLFWGTPGVLIPPAEAARLAKSLPNCKAVDIGPGLNLLQEDNPDLIGSEIARWLSTLEISGGGGGSTGDGGGGEVQLVESGGGLVQPGGSLRLSCAASGFTFSSYWIHWVRQAPGKGLEWVARINPPNRSNQYADSVKGRFTISADTSKNTAYLQMNSLRAEDTAVYYCARGSGFRWVMDYWGQGTLVTVSSGGSSRSSSSGGGGSGGGGDIQMTQSPSSLSASVGDRVTITCRASQDVSTAVAWYQQKPGKAPKLLIYSASFLYSGVPSRFSGSGSGTDFTLTISSLQPEDFATYYCQQFYTTPSTFGQGTKVEIKGSNSGGTLEGGGSGENLYFQGGGGGRTGGGSEQKLISEEDLGGGSILDYSFTGGAGRDIPPPQIEEACELPECQVDAGNKVCNLQCNNHACGWDGGDCSLNFNDPWKNCTQSLQCWKYFSDGHCDSQCNSAGCLFDGFDCQLTEGQCNPLYDQYCKDHFSDGHCDQGCNSAECEWDGLDCAEHVPERLAAGTLVLVVLLPPDQLRNNSFHFLRELSHVLHTNVVFKRDAQGQQMIFPYYGHEEELRKHPIKRSTVGWATSSLLPGTSGGRQRRELDPMDIRGSIDYLEIDNRQCVQSSSQCFQSATDVAAFLGALASLGSLNIPYKIEAVKSEPVEGPV
modifications: HaloTag domain conjugated with a fluorescent HaloTag-ligand dye in the binding tests (JFX650; Halo-JF635i in paragraph 360)
notes: Secreted protein; also called Probody^V1667D; Probody^V1667D-JF650
For B2, the binding result in test [1] and in test [2] was “no binding” each time.

B3: TEV-cleavable Anti-Notch1 probody, Genentech scFv, Wild-type NRR (HaloTag-anti-NRR1-scFv-TEVcs-msNRR1^WT), intact (uncleaved) (other)
chain: B2 chain with D849V
modifications: HaloTag labelled with JFX650 dye
notes: also called Probody with a mask based on the wild-type Notch1-NRR
With B3, the binding result in test [3] is on record as “no binding”.

B4: 'A-2' variant of the anti-NRR1 scFv (mask domain) (scFv)
scFv: EVQLVESGGGLVQPGGSLRLSCAASGFTFSSYWIHWVRQAPGKGLEWVARINPPNRSNQYADSVKGRFTISADTSKNTAYLQMNSLRAEDTAVYYCARGSGFRWVMDYWGQGTLVTVSSGGSSRSSSSGGGGSGGGGDIQMTQSPSSLSASVGDRVTITCRASQDVSTAVAWYQQKPGKAPKLLIYSASFLYSGVPSRFSGSGSGTDFTLTISSLQPEDFATYYCQQFYTTPSTFGQGTKVEIK
notes: Tested as the N-terminal mask domain of receptors HA-Halo-antiNRR-TEVs-NRR-GAL4VP64, that is on the same polypeptide as the NRR until TEVp cleaves the linker; carries HA tag and HaloTag at its N-terminus; also called A2 scFv
B4: the binding result in test [4], in test [5] and in test [6] was “binds” each time.

For the origin of these results see patent publication US20250289885A1 (TRUSTEES OF BOSTON UNIVERSITY, published 2025).
